Substrate in data set [1]: O=CC(O)COP(=O)(O)O
Kind of data set: steady-state kinetics (Km), IspC-coupled assay. The settings on record: ThDP, Mg2+. The data set is classed as biochemical, Pseudomonas aeruginosa.

Substrate in data set [2]: CC(=O)C(=O)O
Kind of data set: steady-state kinetics (Km), IspC-coupled assay. In kind it is biochemical, Pseudomonas aeruginosa. The settings on record: ThDP, Mg2+.

In paper PMC10504544, “1-deoxy-D-xylulose-5-phosphate synthase from Pseudomonas aeruginosa and Klebsiella pneumoniae reveals conformational changes upon cofactor binding” (The Journal of Biological Chemistry, 2023) one finds Km data, which are given here for 1 protein.

As a reminder, the Km is the substrate concentration at which the rate is half of its maximum.

B1: 1-deoxy-D-xylulose-5-phosphate synthase (paDXPS) (Pseudomonas aeruginosa PAO1) (protein)
chain: MPKTLHEIPRERPATPLLDRASSPAELRRLGEADLETLADELRQYLLYTVGQTGGHFGAGLGVVELTIALHYVFDTPDDRLVWDVGHQAYPHKILTERRELMGTLRQKNGLAAFPRRAESEYDTFGVGHSSTSISAALGMAIAARLQGKERKSVAVIGDGALTAGMAFEALNHASEVDADMLVILNDNDMSISHNVGGLSNYLAKILSSRTYSSMREGSKKVLSRLPGAWEIARRTEEYAKGMLVPGTLFEELGWNYIGPIDGHDLPTLVATLRNMRDMKGPQFLHVVTKKGKGFAPAELDPIGYHAITKLEAPGSAPKKTGGPKYSSVFGQWLCDMAAQDARLLGITPAMKEGSDLVAFSERYPERYFDVAIAEQHAVTLAAGMACEGMKPVVAIYSTFLQRAYDQLIHDVAVQHLDVLFAIDRAGLVGEDGPTHAGSFDISYLRCIPGMLVMTPSDEDELRKLLTTGYLFDGPAAVRYPRGSGPNHPIDPDLQPVEIGKGVVRRRGGRVALLVFGVQLAEAMKVAESLDATVVDMRFVKPLDEALVRELAGSHELLVTIEENAVMGGAGSAVGEFLASEGLEVPLLQLGLPDYYVEHAKPSEMLAECGLDAAGIEKAVRQRLDRQ
As to B1, the Km in data set [1] amounted to 357 ± 77 µM; in data set [2] it was 184 ± 25 µM.
